Reference: patent US20230212319A1, “NOVEL ANTIGEN BINDING DOMAINS AND SYNTHETIC ANTIGEN RECEPTORS INCORPORATING THE SAME” (University of Southern California, priority 2020, published 2023)

B1: SEQ ID NO: 22009: two AABD attached in tandem to one of the two TCR constant chains (protein)
chain: MALPVTALLLPLALLLHAARPLEGKPIPNPLLGLDSTGSGEDLKNVFPPEVAVFEPSKAEIAHTQKATLVCLATGFYPDHVELSWWVNGKEVHSGVCTDPQPLKEQPALNDSRYCLSSRLRVSATFWQNPRNHFRCQVQFYGLSENDEWTQDRAKPVTQIVSAEAWGRADCGITSASYHQGVLSATILYEILLGKATLYAVLVSALVLMAMVKRKDSRGRAKRSGSGATNFSLLKQAGDVEENPGPTSTMDWIWRILFLVGAATGAHSQLQLQESGPGLVKPSETLSLTCTVSGGSVSSSSYYWGWIRQPPGKRLELIGSIYYGGSTYFNPSLKSRVTISVDTSKNQFSLKLSSVTAADTAVYYCAGGDTYGPVGQWPSDYRGQGTLVTVSSGGGGSGGGSFEVQLLESGGGLVQPGGSLRLSCAASGFIFSIYAMSWVRQAPGKGLEWVSGISGSGVNTYYADSVKGRFIISRDNSRNTVYLQMNSLRADDTAVYHCANGKGWDGNTWYEDYRGQGTLVTVSSTREQKLISEEDGSGIQNPDPAVYQLRDSKSSDKSVCLFTDFDSQTNVSQSKDSDVYITDKCVLDMRSMDFKSNSAVAWSNKSDFACANAFNNSIIPEDTFFPSSDVPCDVKLVEKSFETDTNLNFQNLSVIGFRILLLKVAGFNLLMTLRLWSSRAKRSGSGVKQTLNFDLLKLAGDVESNPGPSRGHMTEYKPTVRLATRDDVPRAVRTLAAAFADYPATRHTVDPDRHIERVTELQELFLTRVGLDIGKVWVADDGAAVAVWTTPESVEAGAVFAEIGPRMAELSGSRLAAQQQMEGLLAPHRPKEPAWFLATVGVSPDHQGKGLGSAVVLPGVEAAERAGVPAFLETSAPRNLPFYERLGFTVTADVEVPEGPRTWCMTRKPGA
B2: SEQ ID NO: 22096: FHVH attached to TCRg-6MD via IgCL linker and second FHVH attached to TCRd-6MD via IgG1-CH1 linker (protein)
chain: MALPVTALLLPLALLLHAARPQLQLQESGPGLVKPSETLSLTCTVSGDSISSGDYYWGWIRQPPGKGLEWIGHIYYSGVTYYNPSLKSRVTISVDTSRNQFSLKLSSVTAADTAVYYCTREDSSNWRSRGQGTLVTVSSLEGQPKANPTVTLFPPSSEELQANKATLVCLISDFYPGAVTVAWKADGSPVKAGVETTKPSKQSNNKYAASSYLSLTPEQWKSHRSYSCQVTHEGSTVEKTVAPTECSPIKTDVITMDPKDNCSKDANDTLLLQLTNTSAYYMYLLLLLKSVVYFAIITCCLLRRTAFCCNGEKSRAKRSGSGATNFSLLKQAGDVEENPGPTSMDWIWRILFLVGAATGAHSFEVQLLESGGGLIQPGGSLRLSCAASGFTFSSHAMTWVRQAPGKGLEWVSAISGSGDYTHYADSVKGRFTISRDNSKNTVYLQMNSLRAEDSAVYYCAKDEDGGSLLGHRGQGTLVTVSSTRASTKGPSVFPLAPSSKSTSGGTAALGCLVKDYFPEPVTVSWNSGALTSGVHTFPAVLQSSGLYSLSSVVTVPSSSLGTQTYICNVNHKPSNTKVDKRVEPKSCEVKTDSTDHVKPKETENTKQPSKSCHKPKAIVHTEKVNMMSLTVLGLRMLFAKTVAVNFLLTAKLFFLRAKRSGSGVKQTLNFDLLKLAGDVESNPGPSRGHMTEYKPTVRLATRDDVPRAVRTLAAAFADYPATRHTVDPDRHIERVTELQELFLTRVGLDIGKVWVADDGAAVAVWTTPESVEAGAVFAEIGPRMAELSGSRLAAQQQMEGLLAPHRPKEPAWFLATVGVSPDHQGKGLGSAVVLPGVEAAERAGVPAFLETSAPRNLPFYERLGFTVTADVEVPEGPRTWCMTRKPGA
B3: SEQ ID NO: 22010: two AABD attached in tandem to one of the two TCR constant chains (protein)
chain: MALPVTALLLPLALLLHAARPLEGKPIPNPLLGLDSTGSGEDLKNVFPPEVAVFEPSKAEIAHTQKATLVCLATGFYPDHVELSWWVNGKEVHSGVCTDPQPLKEQPALNDSRYCLSSRLRVSATFWQNPRNHFRCQVQFYGLSENDEWTQDRAKPVTQIVSAEAWGRADCGITSASYHQGVLSATILYEILLGKATLYAVLVSALVLMAMVKRKDSRGRAKRSGSGATNFSLLKQAGDVEENPGPTSTMALPVTALLLPLALLLHAARPQLQLQESGPGLVKPSETLALTCNVSGGSISSSSYYWGWIRQPPGKRLEWIGSIYYSGSTYFNPSLKSRVTISVDTSKNQFSLKLSSVTAADTAVYYCAGGDYYGPVGQWPSDYRGQGTLVTVSSGSGGGGSGGGGSFEVQLLESGGGLVQPGGSLRLSCAASGFIFSSYAMSWVRQAPGKGQEWVSGVSGTGVNTYYADSVKGRFTISRDNSKNTLYLQMNSLRAEDTAVYYCASGKGWDSGSWYEDYRGQGTLVTVSSTREQKLISEEDGSGIQNPDPAVYQLRDSKSSDKSVCLFTDFDSQTNVSQSKDSDVYITDKCVLDMRSMDFKSNSAVAWSNKSDFACANAFNNSIIPEDTFFPSSDVPCDVKLVEKSFETDTNLNFQNLSVIGFRILLLKVAGFNLLMTLRLWSSRAKRSGSGVKQTLNFDLLKLAGDVESNPGPSRGHMTEYKPTVRLATRDDVPRAVRTLAAAFADYPATRHTVDPDRHIERVTELQELFLTRVGLDIGKVWVADDGAAVAVWTTPESVEAGAVFAEIGPRMAELSGSRLAAQQQMEGLLAPHRPKEPAWFLATVGVSPDHQGKGLGSAVVLPGVEAAERAGVPAFLETSAPRNLPFYERLGFTVTADVEVPEGPRTWCMTRKPGA
B4: 22652 (protein)
chain: MALPVTALLLPLALLLHAARPDIQMTQSPSSLSASVGDRVTITCKASDHINNWLAWYQQKPGQAPKLLIYGATTLETGVPSRFSGSGSGTDYTLTISSLQPEDFATYYCQQSWNTPWTFGQGTKLEIKRLEVSPKPTIFLPSIAETKLQKAGTYLCLLEKFFPDVIKIHWQEKKSNTILGSQEGNTMKTNDTYMKFSWLTVPEKSLDKEHRCIVRHENNKNGVDQEIIFPPIKTDVITMDPKDNCSKDANDTLLLQLTNTSAYYMYLLLLLKSVVYFAIITCCLLRRTAFCCNGEKSRAKRSGSGATNFSLLKQAGDVEENPGPTSMDWIWRILFLVGAATGAHSFEQVQLQQPGAELVKPGASVKMSCKASGYAFSSYWINWMKQKPGQGLEWIGQIYPGDGDTNYNGKFKGRATLTADTSSSTAYMQLSSLTSEDSAVYFCARSITTVVGCAMDYWGQGTSVTVSSTRPHTKPSVFVMKNGTNVACLVKEFYPKDIRINLVSSKKITEFDPAIVISPSGKYNAVKLGKYEDSNSVTCSVQHDNKTVHSTDFEVKTDSTDHVKPKETENTKQPSKSCHKPKAIVHTEKVNMMSLTVLGLRMLFAKTVAVNFLLTAKLFFLRAKRSGSGVKQTLNFDLLKLAGDVESNPGPSRGHMTEYKPTVRLATRDDVPRAVRTLAAAFADYPATRHTVDPDRHIERVTELQELFLTRVGLDIGKVWVADDGAAVAVWTTPESVEAGAVFAEIGPRMAELSGSRLAAQQQMEGLLAPHRPKEPAWFLATVGVSPDHQGKGLGSAVVLPGVEAAERAGVPAFLETSAPRNLPFYERLGFTVTADVEVPEGPRTWCMTRKPGA

Legend:
[1] = system: target antigen-expressing cell line; test: Jurkat NFAT-GFP (JNG) assay: induction of NFAT promoter driven GFP expression; type: cell-based; details: SAR-expressing JNG cells co-cultured with cell lines expressing their target antigen(s)
Protocol: Induction ofNFAT promoter driven GFP expression. […] Cellular supernatant is collected and assayed for the induction of cytokines (e.g., IL2).
Cellular supernatant is collected and assayed for the induction of cytokines (e.g., IL2).
JNG (Jurkat cells expressing EGFP under an NFAT promoter) were infected with lentiviral vectors encoding different single chain and multi-chain SARs by spinfection in the presence of 8 µg/ml of Polybrene® (Sigma, Catalog no. H9268). The Jurkat-NFAT-GFP cells are engineered in such a way that the IL-2 promoter, which carries NFAT binding sites, is cloned upstream of the GFP gene. These cells have been used to study signaling via TCR and CAR. The different SARs were stably expressed in Jurkat NFAT-GFP cells by lentiviral mediated gene transfer, followed by selection with puromycin or blasticidin. No drug selection was used in case the construct lacked an antibiotic resistance gene. The SAR-expressing Jurkat-NFAT-GFP cells were cocultured with the target cells at E:T ratio of approximately 1:2 for approximately 4 hours to 18 hours. When the interaction between SIRs and their target antigen results in activation of the NFAT pathway, GFP expression is induced. […] GFP expression was monitored by FACS analysis. The Jurkat-NFAT-GFP (parental) cells were used as control. The structure of different constructs can be determined based on their names. […] The sequence of the other constructs in the table can be similarly determined from their names and by referring to the different Tables of this disclosure that provide the names and SEQ ID NO of the different modules. Alternatively, the composition and modular architecture of the different SAR constructs can be determined from their sequences by bioinformatics tools, including using nucleic acid and amino acids homology searches. A SAR is considered positive in the assay in case the SAR expressing Jurkat-NFAT-GFP cells show greater % GFP positive cells when cultured with the target cell line as compared to parental Jurkat-NFAT-GFP cells. […] In general, the number +/-, +, 2+, 3+, 4+, 5+ refer to approximately 5%, 10%, 20%, 30%, 40% and 50% GFP positive cells. The % of GFP induction in the above assay is dependent not only the relative strength of the SAR but also, among other factors, on the relative level of expression of the SAR in the JNG cells and the relative level of expression of the target antigen in the target cell line. To control for the difference in gene transduction efficiency of the different SAR constructs, the experiment was conducted with JNG cells transduced with SAR constructs co-expressing a drug resistance gene (e.g., puromycin or PAC) followed by drug selection to generate a stable population of SAR-expressing cells. It is to be noted that the drug resistance gene (e.g., PAC) in the SAR constructs is optional and in vivo studies were conducted with SAR constructs lacking the PAC gene.

[2] = system: RAJI cells; test: JNG (Jurkat NFAT-GFP) cells expressing SAR: GFP induction on co-culture with RAJI; details: CD19 hu-mROO5-1 SIRs with deletion mutants of TCR constant chains; flow cytometry

Molecule | GFP induction / activity in JNG assay [1] | Jurkat-NFAT ASSA Y: Raji [2]
B1 | only weak and inconsistent activity | 
B2 | best activity | 
B3 | only weak and inconsistent activity | 
B4 |  | significant residual activity
